Measured values as given in PMC8280134.

Molecular target: GII.4 P-domain (crystallisation construct) (human norovirus GII.4)
Experiment: crystal structure; P-domain and Fab mixed 1:1.5, complex isolated by gel filtration; crystals in 0.1 M BIS-TRIS propane pH 8.5, 0.2 M KSCN, 20% w/v PEG 3350, 20 °C

GII.4 P-domain (crystallisation construct) (domain or fragment)
stoichiometry N: 2
